Laboratory results as given in publication PMC10681739, “High-throughput data and modeling reveal insights into the mechanisms of cooperative DNA-binding by transcription factor proteins”.

B1: Table S3 C row 11 (dsDNA)
DNA 1: AAAAGCATCCCCAGACTTCCTGTTGGGAGCTCTCTG
DNA 2: CAGAGAGCTCCCAACAGGAAGTCTGGGGATGCTTTT
B2: Table S3 C row 69 (dsDNA)
DNA 1: TCCCCGAGCGTGCAGCTTCCGGTGAGGGCAGCCCCA
DNA 2: TGGGGCTGCCCTCACCGGAAGCTGCACGCTCGGGGA
B3: Table S3 C row 27 (dsDNA)
DNA 1: TGCGCCGCGCCCCGGGTTCCGGAATGCACTCTGAAC
DNA 2: GTTCAGAGTGCATTCCGGAACCCGGGGCGCGGCGCA
B4: Table S3 C row 174 (dsDNA)
DNA 1: TTGCTCTGCGCATGGCGGAAAGGGTGCGCCGCCTGT
DNA 2: ACAGGCGGCGCACCCTTTCCGCCATGCGCAGAGCAA
B5: Table S3 C row 52 (dsDNA)
DNA 1: TTTCGCCGACCCCGCCGGAAGACCAGGCCGGCGCGG
DNA 2: CCGCGCCGGCCTGGTCTTCCGGCGGGGTCGGCGAAA
B6: Table S3 C row 101 (dsDNA)
DNA 1: AGTCAGAAGTTTCAGCGGAAATTGAAGCGCGGCCCT
DNA 2: AGGGCCGCGCTTCAATTTCCGCTGAAACTTCTGACT
B7: Table S3 C row 198 (dsDNA)
DNA 1: GGCAGCAGCCTTCGGCTTCCGCTTTTCGGCTTTCGC
DNA 2: GCGAAAGCCGAAAAGCGGAAGCCGAAGGCTGCTGCC
B8: Table S3 B row 594 (dsDNA)
DNA 1: CCCCTCCCCACACCACAACAAACCTGATCCTTGCGC
DNA 2: GCGCAAGGATCAGGTTTGTTGTGGTGTGGGGAGGGG
B9: Table S3 C row 172 (dsDNA)
DNA 1: TGGCTGAGACTGAGACGGAAGGATCCTTGCGCCCAG
DNA 2: CTGGGCGCAAGGATCCTTCCGTCTCAGTCTCAGCCA
B10: Table S3 C row 29 (dsDNA)
DNA 1: CCGGTCTCGCGATAGCGGAAAGGGCTGTACCATCTG
DNA 2: CAGATGGTACAGCCCTTTCCGCTATCGCGAGACCGG
B11: Table S3 C row 74 (dsDNA)
DNA 1: GTCATCTCGTTGACACTTCCGCTGACCCGTGCAGTT
DNA 2: AACTGCACGGGTCAGCGGAAGTGTCAACGAGATGAC
B12: Table S3 C row 166 (dsDNA)
DNA 1: ACCCCGGGTCGGAGTGTTCCGGCCCGGCCAGCCCCG
DNA 2: CGGGGCTGGCCGGGCCGGAACACTCCGACCCGGGGT
B13: Table S3 B row 887 (dsDNA)
DNA 1: CACCCTGCCACCTCCCTAAACTCCCCGCACAGGCCG
DNA 2: CGGCCTGTGCGGGGAGTTTAGGGAGGTGGCAGGGTG
B14: Table S3 C row 176 (dsDNA)
DNA 1: GCCGCCATGGGGCGCTATCCGGCCCCAGCCGGGACC
DNA 2: GGTCCCGGCTGGGGCCGGATAGCGCCCCATGGCGGC
B15: Table S3 C row 173 (dsDNA)
DNA 1: CGCTATCGGGGCAGCAGGAAGTCGCCATCTTGAATC
DNA 2: GATTCAAGATGGCGACTTCCTGCTGCCCCGATAGCG
B16: Table S3 C row 70 (dsDNA)
DNA 1: GGCCGCGCCCAGACCCGGAAGCGGGGCCGTCACGTG
DNA 2: CACGTGACGGCCCCGCTTCCGGGTCTGGGCGCGGCC
B17: Table S3 C row 144 (dsDNA)
DNA 1: GTTTAAGCTCAGCGCCTTCCTGGTTCTAGCGCCAGG
DNA 2: CCTGGCGCTAGAACCAGGAAGGCGCTGAGCTTAAAC
B18: Table S3 C row 200 (dsDNA)
DNA 1: GCCCCTCACAGCCTGCTTCCGGGAGCCGGGCAGGCC
DNA 2: GGCCTGCCCGGCTCCCGGAAGCAGGCTGTGAGGGGC
B19: Table S3 B row 116 (dsDNA)
DNA 1: GTAGTTCCTTGTCTTTCCTTCTGCCGCCGCAGGCCT
DNA 2: AGGCCTGCGGCGGCAGAAGGAAAGACAAGGAACTAC
B20: Table S3 C row 128 (dsDNA)
DNA 1: GGTCCCGCCCCTGGCCGGAAGTTCTGGCGGCGGAGC
DNA 2: GCTCCGCCGCCAGAACTTCCGGCCAGGGGCGGGACC
B21: Table S3 C row 26 (dsDNA)
DNA 1: GACACTGGAGGGAGCCGGAAGTACCTCGGAGTTTTA
DNA 2: TAAAACTCCGAGGTACTTCCGGCTCCCTCCAGTGTC
B22: Table S3 C row 122 (dsDNA)
DNA 1: ACCCTGAAGCCTCGCCGGAACTCGCGTCTGGGGCCA
DNA 2: TGGCCCCAGACGCGAGTTCCGGCGAGGCTTCAGGGT
B23: Table S3 B row 1244 (dsDNA)
DNA 1: GGAACCCGCAGAAGCCCCGCCTCCCGTAAGCGGAGC
DNA 2: GCTCCGCTTACGGGAGGCGGGGCTTCTGCGGGTTCC
B24: Table S3 C row 62 (dsDNA)
DNA 1: GGGAGAAGCGGGAGGCGGAACGCCCGAGGGCGCCCT
DNA 2: AGGGCGCCCTCGGGCGTTCCGCCTCCCGCTTCTCCC
B25: Table S3 C row 178 (dsDNA)
DNA 1: TGGCTGCTACGTCGTCTTCCTGGGCGAAAGTGCCTG
DNA 2: CAGGCACTTTCGCCCAGGAAGACGACGTAGCAGCCA
B26: Table S3 C row 8 (dsDNA)
DNA 1: GCCAGGCCGGCGGCGCGGAAGGTCTCCTGTGCCTGC
DNA 2: GCAGGCACAGGAGACCTTCCGCGCCGCCGGCCTGGC
B27: Table S3 C row 65 (dsDNA)
DNA 1: TTCACTGAACGGCTTCATCCTGTGCTTTGGGAGGCA
DNA 2: TGCCTCCCAAAGCACAGGATGAAGCCGTTCAGTGAA
B28: Table S3 C row 138 (dsDNA)
DNA 1: GGGGCCTGTTGTAGTTTTCCTGCATTCAAAGTACCC
DNA 2: GGGTACTTTGAATGCAGGAAAACTACAACAGGCCCC
B29: Table S3 C row 81 (dsDNA)
DNA 1: GGCCCATTGTCCGCGCTTCCGTTCAGGCTCCGCCTC
DNA 2: GAGGCGGAGCCTGAACGGAAGCGCGGACAATGGGCC
B30: Table S3 C row 180 (dsDNA)
DNA 1: CTGTGCAGCGTCCTCCTTCCGGGTGCAGGCGGGCCT
DNA 2: AGGCCCGCCTGCACCCGGAAGGAGGACGCTGCACAG
B31: Table S3 C row 100 (dsDNA)
DNA 1: TGGCTAGGGGCAGGGCTTCCGGCCTCGAACTTTAAC
DNA 2: GTTAAAGTTCGAGGCCGGAAGCCCTGCCCCTAGCCA
B32: Table S3 C row 106 (dsDNA)
DNA 1: ACCAGGCGACGATGCCGGAACGCGCAAGTACGCGAG
DNA 2: CTCGCGTACTTGCGCGTTCCGGCATCGTCGCCTGGT
B33: Table S3 C row 79 (dsDNA)
DNA 1: TTGCAAGTACACCTGCATCCGGTGGCATGTTTTAGT
DNA 2: ACTAAAACATGCCACCGGATGCAGGTGTACTTGCAA
B34: Table S3 C row 170 (dsDNA)
DNA 1: ACCGGCGCGCACACGCTTCCGTGCTACGAGGCACTT
DNA 2: AAGTGCCTCGTAGCACGGAAGCGTGTGCGCGCCGGT
B35: Table S3 C row 188 (dsDNA)
DNA 1: GCAAGCGGGCCTGGGCGGATGTCTCGGGCGCGTCGG
DNA 2: CCGACGCGCCCGAGACATCCGCCCAGGCCCGCTTGC
B36: Table S3 B row 3059 (dsDNA)
DNA 1: AGGCTGTGGTTATCTGCAAACAGCCCCCGTCCATCC
DNA 2: GGATGGACGGGGGCTGTTTGCAGATAACCACAGCCT
B37: Table S3 C row 164 (dsDNA)
DNA 1: GGGCTGGGTGGAGACAGGAAGCTTCAGAGCCACTCC
DNA 2: GGAGTGGCTCTGAAGCTTCCTGTCTCCACCCAGCCC
B38: Table S3 B row 1720 (dsDNA)
DNA 1: GCCTGCGGTGTGGACTCGCATCATGTCCTCTTTCTG
DNA 2: CAGAAAGAGGACATGATGCGAGTCCACACCGCAGGC
B39: Table S3 B row 1567 (dsDNA)
DNA 1: ACGGAGCTGTGGTTTAACGTTTCAGGTTCGTGGCTA
DNA 2: TAGCCACGAACCTGAAACGTTAAACCACAGCTCCGT
B40: Table S3 C row 132 (dsDNA)
DNA 1: GAGAGACCTGGGCCACTTCCGGGAGAACCCGAGCTT
DNA 2: AAGCTCGGGTTCTCCCGGAAGTGGCCCAGGTCTCTC
B41: Table S3 C row 121 (dsDNA)
DNA 1: CACTCATTCCAGATCAGGAAGTGATCAGTGCCTCAA
DNA 2: TTGAGGCACTGATCACTTCCTGATCTGGAATGAGTG
B42: Table S3 C row 194 (dsDNA)
DNA 1: TGGGCAAGCCTTGGGCTTCCGGAGCCAAAAGGCCCA
DNA 2: TGGGCCTTTTGGCTCCGGAAGCCCAAGGCTTGCCCA
B43: Table S3 C row 87 (dsDNA)
DNA 1: AGAGGAGGGGCCCGGCGGAAACTGCCGAGGTCTCCC
DNA 2: GGGAGACCTCGGCAGTTTCCGCCGGGCCCCTCCTCT
B44: Table S3 C row 72 (dsDNA)
DNA 1: CCCCGTCCACGGCCCCGGAAGCTGACGTCGCCGAAG
DNA 2: CTTCGGCGACGTCAGCTTCCGGGGCCGTGGACGGGG
B45: Table S3 C row 20 (dsDNA)
DNA 1: TACCTCTGTAACAGGTTTCCTGTCCCTGCCCAGCTT
DNA 2: AAGCTGGGCAGGGACAGGAAACCTGTTACAGAGGTA

Biological target: RUNX1 (Homo sapiens, UniProt Q01196)
Sequence (Q01196 whole entry): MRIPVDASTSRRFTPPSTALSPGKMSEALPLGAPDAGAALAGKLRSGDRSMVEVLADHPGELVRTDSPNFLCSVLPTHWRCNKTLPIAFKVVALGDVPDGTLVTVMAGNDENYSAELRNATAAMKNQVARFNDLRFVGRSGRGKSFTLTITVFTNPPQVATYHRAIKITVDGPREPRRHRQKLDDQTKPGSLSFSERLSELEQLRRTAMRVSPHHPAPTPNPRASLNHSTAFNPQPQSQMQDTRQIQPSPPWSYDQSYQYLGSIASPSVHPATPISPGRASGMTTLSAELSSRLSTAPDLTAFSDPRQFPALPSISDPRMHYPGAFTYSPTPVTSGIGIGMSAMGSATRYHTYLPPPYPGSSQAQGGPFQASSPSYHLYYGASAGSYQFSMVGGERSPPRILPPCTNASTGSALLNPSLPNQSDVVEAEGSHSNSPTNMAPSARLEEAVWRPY
Assay: gcPBM; 2 nM RUNX1
Conditions: tags: N-terminal GST (pDEST15), kept (PMC6008103); label: surface-attached array probe

Binder | binding signal
B1 | 697 PBM fluorescence, median of replicate spots
B2 | 735 PBM fluorescence, median of replicate spots
B3 | 659 PBM fluorescence, median of replicate spots
B4 | 735 PBM fluorescence, median of replicate spots
B5 | 732 PBM fluorescence, median of replicate spots
B6 | 665 PBM fluorescence, median of replicate spots
B7 | 686 PBM fluorescence, median of replicate spots
B8 | 1700 PBM fluorescence, median of replicate spots
B9 | 723 PBM fluorescence, median of replicate spots
B10 | 697 PBM fluorescence, median of replicate spots
B11 | 697 PBM fluorescence, median of replicate spots
B12 | 724 PBM fluorescence, median of replicate spots
B13 | 1620 PBM fluorescence, median of replicate spots
B14 | 729 PBM fluorescence, median of replicate spots
B15 | 725 PBM fluorescence, median of replicate spots
B16 | 680 PBM fluorescence, median of replicate spots
B17 | 729 PBM fluorescence, median of replicate spots
B18 | 726 PBM fluorescence, median of replicate spots
B19 | 1720 PBM fluorescence, median of replicate spots
B20 | 714 PBM fluorescence, median of replicate spots
B21 | 723 PBM fluorescence, median of replicate spots
B22 | 728 PBM fluorescence, median of replicate spots
B23 | 1640 PBM fluorescence, median of replicate spots

Binder | binding signal
B24 | 722 PBM fluorescence, median of replicate spots
B25 | 726 PBM fluorescence, median of replicate spots
B26 | 689 PBM fluorescence, median of replicate spots
B27 | 718 PBM fluorescence, median of replicate spots
B28 | 732 PBM fluorescence, median of replicate spots
B29 | 725 PBM fluorescence, median of replicate spots
B30 | 722 PBM fluorescence, median of replicate spots
B31 | 688 PBM fluorescence, median of replicate spots
B32 | 676 PBM fluorescence, median of replicate spots
B33 | 712 PBM fluorescence, median of replicate spots
B34 | 726 PBM fluorescence, median of replicate spots
B35 | 720 PBM fluorescence, median of replicate spots
B36 | 1590 PBM fluorescence, median of replicate spots
B37 | 735 PBM fluorescence, median of replicate spots
B38 | 1680 PBM fluorescence, median of replicate spots
B39 | 1650 PBM fluorescence, median of replicate spots
B40 | 721 PBM fluorescence, median of replicate spots
B41 | 680 PBM fluorescence, median of replicate spots
B42 | 610 PBM fluorescence, median of replicate spots
B43 | 733 PBM fluorescence, median of replicate spots
B44 | 733 PBM fluorescence, median of replicate spots
B45 | 673 PBM fluorescence, median of replicate spots
